According to patent US20220242973A1 (Molecular Partners, published 2022):

Assays:
[1] = target: T1, Recombinant human FAP (fibroblast activation protein) (human, UniProt Q12884 26-760); experiment: SPR (ProteOn), human FAP immobilized on GLC chip
T1 construct: Bought soluble recombinant protein; Chemically biotinylated for the HTRF screen; also called hFAP; biotinylated human FAP
T1 sequence (looked up): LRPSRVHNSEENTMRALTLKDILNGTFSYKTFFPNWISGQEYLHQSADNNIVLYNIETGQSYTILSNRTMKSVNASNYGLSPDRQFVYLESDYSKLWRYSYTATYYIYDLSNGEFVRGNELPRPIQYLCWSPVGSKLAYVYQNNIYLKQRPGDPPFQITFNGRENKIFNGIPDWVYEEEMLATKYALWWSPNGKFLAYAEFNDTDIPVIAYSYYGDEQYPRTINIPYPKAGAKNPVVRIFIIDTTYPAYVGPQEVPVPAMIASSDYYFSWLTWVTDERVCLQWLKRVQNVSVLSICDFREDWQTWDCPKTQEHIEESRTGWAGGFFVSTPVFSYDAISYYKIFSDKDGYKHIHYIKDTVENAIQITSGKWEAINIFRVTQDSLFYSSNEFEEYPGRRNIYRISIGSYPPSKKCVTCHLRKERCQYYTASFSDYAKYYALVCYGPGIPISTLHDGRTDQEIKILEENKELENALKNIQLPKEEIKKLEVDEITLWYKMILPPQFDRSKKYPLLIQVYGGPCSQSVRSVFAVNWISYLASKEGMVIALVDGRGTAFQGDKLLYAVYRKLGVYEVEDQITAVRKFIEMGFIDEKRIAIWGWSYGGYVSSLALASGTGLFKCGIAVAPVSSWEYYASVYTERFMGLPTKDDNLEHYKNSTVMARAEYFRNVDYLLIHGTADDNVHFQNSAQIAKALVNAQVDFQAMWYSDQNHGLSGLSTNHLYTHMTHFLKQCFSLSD
Experimental: Briefly, human FAP was diluted in 10 mM Na-acetate pH 5.3 buffer and covalently immobilized on a GLC chip (BioRad) to a level of around 2000 resonance units (RU). The interaction of ankyrin repeat protein and hFAP was then measured by injecting 200 μl running buffer (PBS, pH 7.4 containing 0.005% Tween 20®) containing serial dilutions of ankyrin repeat proteins covering a concentration range between 30 nM and 0.5 nM (on-rate measurement), followed by a running buffer flow for at least 25 minutes at a constant flow rate of 100 μl/min (off-rate measurement). The regeneration was performed using 15 μl of 10 mM Glycine pH 2 followed by 15 μl of 124 mM H₃PO₄. […] Based on the SPR traces obtained from the on-rate and off-rate measurements, the on- and off-rate of the corresponding ankyrin repeat protein—FAP interaction was determined.
Briefly, mouse FAP was diluted in 10 mM Na-acetate pH5.3 buffer and covalently immobilized on a GLC chip (BioRad) to a level of around 2000 resonance units (RU). The interaction of DARPin® protein #41 and mFAP was then measured by injecting 200 μl running buffer (PBS, pH7.4 containing 0.005% Tween20®) containing serial dilutions of DARPin® protein #41 covering a concentration range between 50 nM and 3 nM (on-rate measurement), followed by a running buffer flow for 30 minutes at a constant flow rate of 100 μl/min (off-rate measurement). […]

Recombinant mouse FAP = target: T2, Recombinant mouse FAP (mouse, UniProt P97321 26-761); experiment: SPR (ProteOn), mouse FAP immobilized on GLC chip
T2 construct: Bought soluble recombinant protein; also called mFAP
T2 sequence (looked up): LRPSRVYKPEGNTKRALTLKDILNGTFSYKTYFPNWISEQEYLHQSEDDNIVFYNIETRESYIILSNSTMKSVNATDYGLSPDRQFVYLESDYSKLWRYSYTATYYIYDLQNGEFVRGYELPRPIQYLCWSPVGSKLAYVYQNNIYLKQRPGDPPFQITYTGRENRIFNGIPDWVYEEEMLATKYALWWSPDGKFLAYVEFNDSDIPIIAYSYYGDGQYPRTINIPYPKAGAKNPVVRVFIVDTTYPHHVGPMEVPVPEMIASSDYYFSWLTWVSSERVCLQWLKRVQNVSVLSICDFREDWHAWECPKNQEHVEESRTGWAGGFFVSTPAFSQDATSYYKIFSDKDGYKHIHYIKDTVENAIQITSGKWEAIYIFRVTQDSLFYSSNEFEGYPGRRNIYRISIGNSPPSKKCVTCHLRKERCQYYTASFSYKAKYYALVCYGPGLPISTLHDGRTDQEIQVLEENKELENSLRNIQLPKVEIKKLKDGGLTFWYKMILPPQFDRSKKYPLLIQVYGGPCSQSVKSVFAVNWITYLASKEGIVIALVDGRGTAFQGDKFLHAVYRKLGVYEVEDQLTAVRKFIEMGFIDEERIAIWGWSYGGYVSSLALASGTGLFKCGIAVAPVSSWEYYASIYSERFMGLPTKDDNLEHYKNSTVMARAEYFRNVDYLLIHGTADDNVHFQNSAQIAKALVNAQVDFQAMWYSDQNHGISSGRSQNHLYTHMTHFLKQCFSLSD
Experimental: Briefly, mouse FAP was diluted in 10 mM Na-acetate pH5.3 buffer and covalently immobilized on a GLC chip (BioRad) to a level of around 2000 resonance units (RU). The interaction of DARPin® protein #41 and mFAP was then measured by injecting 200 μl running buffer (PBS, pH7.4 containing 0.005% Tween20®) containing serial dilutions of DARPin® protein #41 covering a concentration range between 50 nM and 3 nM (on-rate measurement), followed by a running buffer flow for 30 minutes at a constant flow rate of 100 μl/min (off-rate measurement). The regeneration was performed using 15 μl of 10 mM Glycine pH 2 followed by 15 μl of 124 mM H₃PO₄. The signals (i.e. resonance unit (RU) values) of the interspots and a reference injection (i.e. injection of running buffer only) were subtracted from the RU traces obtained after injection of DARPin® protein #41 (double-referencing). The binding of DARPin® protein #41 to hFAP was determined as described in Example 2.
Dissociation constants (KD) were calculated from the estimated on- and off-rates using standard procedures known to the person skilled in the art and are reported in Table 7. […] The dissociation constant of DARPin® protein #41 for binding to mouse FAP was determined to be 1.3 nM.

Kd [1]: 264 pM | Kd (Recombinant mouse FAP): 1300 pM
B1: DARPin® protein #41 (designed binder)
chain: MRGSHHHHHHGSDLGKKLLEAARAGQDDEVRELLKAGADVNAKDYFSHTPLHLAARNGHLKIVEVLLKAGADVNAKDFAGKTPLHLAANEGHLEIVEVLLKAGADVNAQDIFGKTPADIAADAGHEDIAEVLQKAAGSPTPTPTTPTPTPTTPTPTPTGSDLGEKLLVAALYGQDDEVRILLAAGADVNAKDQWGLTPLHKAALQGHLEIVEVLLKAGADVNAKDERGHTPLHWAARFGHLEIVEVLLKAGADVNAQDQKGYTPADLAALWGHEDIAEVLQKAA
notes: Fusion of a serum albumin-specific and a FAP-specific ankyrin repeat domain
